Results from patent publication US10385103B2, “Cell-permeable (ICP)-SOCS3 recombinant protein and uses thereof” (CELLIVERY THERAPEUTICS, INC., priority 2014, dated 2019).

Key:
AGS cells [1] = experiment: Wound cell migration inhibition in gastric carcinoma cells; type: cell-based; conditions: 10 μM 2 hrs, additional 24 hrs
Method: AGS cells (gastric cancer cell line) were seeded in a 12 well plate at a density of 2.5×10^5 per well, grown to 90% confluence. Confluent AGS cells were incubated with 10 μM HM#S3B in serum-free medium for 2 hrs prior to changing the growth medium (DMEM/F12, Hyclone, Logan, Utah, USA) and washed twice with PBS, and the monolayer at the center of the well was “wounded” by scraping with a sterilized white pipette tip. Cells were cultured for an additional 24 hrs and cell migration was observed by phase contrast microscopy (Nikon, ECLIPSE Ts2). The migration was quantified by counting the number of cells that migrated from the wound edge into the clear area.

AGS cells [2] = experiment: Antiproliferative activity, CellTiter-Glo Cell Viability Assay; type: cell-based; conditions: 10 μM, 96 hrs, 2% serum
Method: Antiproliferative activity were evaluated with the CellTiter-Glo Cell Viability Assay. AGS cells (3×10^3/well) were seeded in 96 well plates. The next day, cells were treated with DMEM (vehicle) or 10 μM HM165S3B, HM15S3B′(V28L) for 96 hrs in the presence of serum (2%). Proteins were replaced daily. Cell growth and survival were evaluated with the CellTiter-Glo Cell Viability Assay (Promega, Madison, Wis.). Measurements using a Luminometer (Turner Designs, Sunnyvale, Calif.) were conducted following the manufacturer's protocol.

B1: HM165S3B: His-tagged recombinant protein of aMTD165, human SOCS3 and solubilization domain B; prototype improved cell-permeable SOCS3 (protein)
chain: MGSSHHHHHHSSGLVPRGSHMALAVPVALAIVPVTHSKFPAAGMETSRPLDTSLRLKTFSSKSEYQLVVNAVRKLQESGFYWSAVTGGEANLLLSAEPAGTFLIRDSSDQRHFFTLSVKTQSGTKNLRIQCEGGSFSLQSDPRSTQPVPRFDCVLKLVHHYMETPPPGAPSFPSPPTEPSSEVPEQPSAQPLPGSPPRRAYYIYSGGEKIPLVLSRPLSSNVATLQHLCRKTVNGHLDSYEKVTQLPGPIREFLDQYDAPLGSMAEQSDKDVKYYTLEEIQKHKDSKSTWVILHHKVYDLTKFLEEHPGGEEVLGEQAGGDATENFEDVGHSTDARELSKTYIIGELHPDDRSKIAKPSETL
modifications: Amino acid sequence of HM165S3B
- inhibition of cell migration (wound) (AGS cells [1]): inhibiting migration of gastric carcinoma cells
- inhibition of cell migration (wound) (AGS cells [1]; listed as aMTD165-fused SOCS3 recombinant protein): showed the most effective inhibition of cancer cell migration
- anti-proliferative activity (AGS cells [2]): high anti-proliferative effects on gastric carcinoma cells
